Laboratory results from patent US7022818 (Janssen / Centocor, dated 2006).

B1: NH2-terminally 6His-tagged recombinant rat persephin (ligand)
chain: HHHHHHALPGLCRLWSLTLPVAELGLGYASEEKIIFRYCAGSCPQEVRTQHSLVLARLRGQGRAHGRPCCQPTSYADVTFLDDHHHWQQLPQLSAAACGCGG
notes: Immobilised on a CM5 chip by amine coupling; Produced as described in Creedon et al., 1997; also called PSP; rat PSP
B2: NH2-terminally 6His-tagged recombinant human neurturin (ligand)
chain: HHHHHHARLGARPCGLRELEVRVSELGLGYASDETVLFRYCAGACEAAARVYDLGLRRLRQRRRLRRERVRAQPCCRPTAYEDEVSFLDAHSRYHTVHELSARECACV
notes: Immobilised on a CM5 chip by amine coupling; also called NTN
B3: rat GFRα-4 variant A-IgGFc fusion protein (Fc fusion)
chain: ASSTEGNRCVEAAEACTADEQCQQLRSEYVAQCLGRAGWRGPGSCVRSRCRRALRRFFARGPPALTHALLFCGCEGPACAERRRQTFAPACAFSGPQLAPPSCLKPLDRCERSRRCRPRLFAFQASCAPAPGSRDGCPEEGGPRCLRAYAGLVGTVVTPNYLDNVSARVAPWCGCEASGNRREECEAFRKLFTRNPCLDGAIQAFDSSQPSVLQDQWNPYQNAG
notes: also called rat GFRα-4-IgGFc; rat GFRα4-IgGFc; not shown: The 243-residue COOH-terminal human IgG1-Fc fusion domain from the vector Signal pIg plus (R&D Systems)
B4: recombinant human GDNF (ligand, UniProt P39905 78-211, looked up)
chain: SPDKQMAVLPRRERNRQAAAANPENSRGKGRRGQRGKNRGCVLTAIHLNVTDLGLGYETKEELIFRYCSGSCDAAETTYDKILKNLSRNRRLVSDKVGQACCRPIAFDDDLSFLDDNLVYHILRKHSAKRCGCI
notes: Immobilised on a CM5 chip by amine coupling; also called glial cell-line derived neurotrophic factor
B5: NH2-terminally 6His-tagged recombinant human enovin/artemin (ligand)
chain: HHHHHHAGGPGSRARAAGARGCRLRSQLVPVRALGLGHRSDELVRFRFCSGSCRRARSPHDLSLASLLGAGALRPPPGSRPVSQPCCRPTRYEAVSFMDVNSTWRTVDRLSATACGCLG
notes: Immobilised on a CM5 chip by amine coupling; also called EVN/ART; EVN/ARTN

Columns and labels:
[1] = molecular target: B3; assay: SPR (BIACORE 3000), persephin immobilised, GFRα-4-IgGFc in solution, 1:1 Langmuir global fit, n=3
Description: (§1) Bound protein was eluted with 0.1 M Na-citrate, pH 3.0 and collected into 1 M Tris buffer, pH 8.4 (dilution ratio 1:6). Protein concentration was estimated by absorbance at 280 nm using an extinction coefficient of 1.5. Surface plasmon resonance (SPR) U.S. Ser. No. 10/019,337, filed Dec. 19, 2001 experiments were performed at 25° C. using a BIACORE 3000 instrument (Biacore AB, Uppsala, Sweden). Sensor chip CM5, the amine coupling kit and buffers used were also obtained from Biacore AB. Recombinant PSP, NTN, EVN/ART and GDNF were used as immobilised ligands. Recombinant human GDNF was obtained from R&D Systems Europe Ltd. (Abingdon, UK). NH2-terminally 6His-tagged (SEQ ID NO: 48) recombinant human NTN, rat PSP and human EVN/ART were produced in *E. coli* as described previously (Creedon et al., 1997). The carboxylated matrix of a CM5 sensor chip was first activated with a 1:1 mixture of 400 mM N-ethyl-N'-(3-dimethylaminopropyl)-carbodiimide and 100 mM N-hydroxy-succinimide for 10 min. Recombinant neurotrophic factors were applied onto the activated surface in 10 mM sodium acetate buffer, pH 4.5 at a flow rate of 5 μl/min. Unreacted carboxyl groups were blocked with 1 M ethanolamine-HCl. For binding experiments, soluble GFRα-IgGFc fusion proteins were superfused using the kinject program at 30 μl/min. Concentrations of GFRα-IgGFc used in kinetic experiments were between 1 and 100 nM in Hepes buffered saline (150 mM NaCl, 3.5 mM EDTA sodium salt, 0.005% polysorbate 20, 10 mM Hepes, pH 7.4). The association of the GFRα receptors to the immobilised ligands was monitored for 3 min and the dissociation for 1 min, followed by regeneration with 10 mM glycine buffer. Dissociation was initiated by superfusion with Hepes buffered saline. To improve the quality of sensor data, double referencing was used (Myszka, 1999). Data were analyzed using a global analysis with the BIACORE evaluation software (version 3.0.1). Global analysis calculates the association rate (k_a) and dissociation rate (k_d) simultaneously and the apparent equilibrium dissociation constant (K_D) is then calculated as k_d/k_a. A simple 1:1 Langmuir model was used to fit the data. Specific binding to PSP could be detected with both rat and chicken GFRα-4-IgGFc fusion proteins.

[2] = molecular target: T1, chicken GFRα-4-IgGFc fusion protein (chicken; human, UniProt P01857-1 99-330 = IgG part, limits assumed); assay: as above
T1 construct: domain: human IgG1-Fc fusion domain; also called chicken GFR-4-IgGFc
Description: as §1

[3] = molecular target: T2, human GFRα-2-IgGFc fusion protein (human, UniProt O00451 20-431); assay: SPR (BIACORE 3000), NTN immobilised
T2 construct: range 20-431; not shown: 243 amino acid residue COOH-terminal human IgG1-Fc fusion domain from vector Signal pIg plus (R&D Systems); exact limits
T2 sequence (looked up): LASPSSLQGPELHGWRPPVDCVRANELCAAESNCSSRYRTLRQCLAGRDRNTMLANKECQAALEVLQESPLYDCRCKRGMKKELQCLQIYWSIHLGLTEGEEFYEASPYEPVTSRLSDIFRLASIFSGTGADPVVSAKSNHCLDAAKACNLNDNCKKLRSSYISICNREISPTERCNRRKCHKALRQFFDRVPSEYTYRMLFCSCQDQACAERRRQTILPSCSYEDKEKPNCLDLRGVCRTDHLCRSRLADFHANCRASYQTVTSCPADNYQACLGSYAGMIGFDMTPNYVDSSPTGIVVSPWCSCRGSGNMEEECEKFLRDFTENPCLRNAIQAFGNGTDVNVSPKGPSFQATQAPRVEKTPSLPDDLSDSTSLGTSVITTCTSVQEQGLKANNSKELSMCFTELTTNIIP
Description: GFRα-IgGFc fusion proteins were purified from the medium of permanently or transiently transfected CHO cells by protein A chromatography. Bound protein was eluted with 0.1 M Na-citrate, pH 3.0 and collected into 1 M Tris buffer, pH 8.4 (dilution ratio 1:6). Protein concentration was estimated by absorbance at 280 nm using an extinction coefficient of 1.5. Surface plasmon resonance (SPR) U.S. Ser. No. 10/019,337, filed Dec. 19, 2001 experiments were performed at 25° C. using a BIACORE 3000 instrument (Biacore AB, Uppsala, Sweden). Sensor chip CM5, the amine coupling kit and buffers used were also obtained from Biacore AB. Recombinant PSP, NTN, EVN/ART and GDNF were used as immobilised ligands. Recombinant human GDNF was obtained from R&D Systems Europe Ltd. (Abingdon, UK). NH2-terminally 6His-tagged (SEQ ID NO: 48) recombinant human NTN, rat PSP and human EVN/ART were produced in *E. coli* as described previously (Creedon et al., 1997). […] The association of the GFRα receptors to the immobilised ligands was monitored for 3 min and the dissociation for 1 min, followed by regeneration with 10 mM glycine buffer. […] Data were analyzed using a global analysis with the BIACORE evaluation software (version 3.0.1). Global analysis calculates the association rate (k_a) and dissociation rate (k_d) simultaneously and the apparent equilibrium dissociation constant (K_D) is then calculated as k_d/k_a. […]

[4] = molecular target: B3; assay: SPR (BIACORE 3000), ligand immobilised, GFRα-IgGFc in solution
Description: as §1

[5] = molecular target: T1, chicken GFRα-4-IgGFc fusion protein; assay: as above
Description: as §1

[6] = molecular target: B1; assay: SPR (BIACORE 3000), persephin immobilised
Description: Bound protein was eluted with 0.1 M Na-citrate, pH 3.0 and collected into 1 M Tris buffer, pH 8.4 (dilution ratio 1:6). Protein concentration was estimated by absorbance at 280 nm using an extinction coefficient of 1.5. Surface plasmon resonance (SPR) U.S. Ser. No. 10/019,337, filed Dec. 19, 2001 experiments were performed at 25° C. using a BIACORE 3000 instrument (Biacore AB, Uppsala, Sweden). Sensor chip CM5, the amine coupling kit and buffers used were also obtained from Biacore AB. Recombinant PSP, NTN, EVN/ART and GDNF were used as immobilised ligands. Recombinant human GDNF was obtained from R&D Systems Europe Ltd. (Abingdon, UK). NH2-terminally 6His-tagged (SEQ ID NO: 48) recombinant human NTN, rat PSP and human EVN/ART were produced in *E. coli* as described previously (Creedon et al., 1997). […] The association of the GFRα receptors to the immobilised ligands was monitored for 3 min and the dissociation for 1 min, followed by regeneration with 10 mM glycine buffer. […] Data were analyzed using a global analysis with the BIACORE evaluation software (version 3.0.1). Global analysis calculates the association rate (k_a) and dissociation rate (k_d) simultaneously and the apparent equilibrium dissociation constant (K_D) is then calculated as k_d/k_a. […] Specific binding to PSP could be detected with both rat and chicken GFRα-4-IgGFc fusion proteins.

T1 sequence (P01857 other isoform, or with tags, fused parts or gaps limits assumed): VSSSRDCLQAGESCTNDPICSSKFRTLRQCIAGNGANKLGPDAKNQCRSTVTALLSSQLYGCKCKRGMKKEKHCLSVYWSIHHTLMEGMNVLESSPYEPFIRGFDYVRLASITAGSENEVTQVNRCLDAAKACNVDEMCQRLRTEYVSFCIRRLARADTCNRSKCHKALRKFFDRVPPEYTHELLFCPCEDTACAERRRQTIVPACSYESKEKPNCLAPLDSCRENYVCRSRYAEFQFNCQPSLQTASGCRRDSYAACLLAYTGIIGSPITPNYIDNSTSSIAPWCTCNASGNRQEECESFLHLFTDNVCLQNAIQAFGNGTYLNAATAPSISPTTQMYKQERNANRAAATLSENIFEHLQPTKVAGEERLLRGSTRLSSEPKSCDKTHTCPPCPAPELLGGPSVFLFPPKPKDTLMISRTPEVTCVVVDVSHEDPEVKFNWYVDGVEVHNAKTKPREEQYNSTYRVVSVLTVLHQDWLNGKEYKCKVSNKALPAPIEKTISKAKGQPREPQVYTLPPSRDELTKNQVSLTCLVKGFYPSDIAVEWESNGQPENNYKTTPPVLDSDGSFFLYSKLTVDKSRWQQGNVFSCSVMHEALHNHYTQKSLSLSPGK

B1
Kd [1]: 5.9 nM
koff [1]: 0.0012 s⁻¹
kon [1]: ~270000 M⁻¹ s⁻¹
Kd [2]: 5.4 nM
koff [2]: 0.00088 s⁻¹
kon [2]: ~230000 M⁻¹ s⁻¹

B2
binding result [3]: binds
binding result [4]: no binding
binding result [5]: no binding

B3
fold lower binding level than chicken GFRα-4-IgGFc [6]: ~20 fold

B4
binding result [4]: no binding
binding result [5]: no binding

B5
binding result [4]: no binding
binding result [5]: no binding
